± gives the uncertainty stated by the source.
B1: POU domain, class 2, transcription factor 2, residues 200 to 269; numbered along this chain, P09086 (parent)
chain: LEELEQFARTFKQRRIKLGFTQGDVGLAMGKLYGNDFSQTTISRFEALNLSFKNMCKLKPLLEKWLNDAE

Variants of: B1
Assay: abundance fitness (aPCA) (normalised: wild type 0, dead -1); higher = more abundant; growth selection in yeast, the domain comes from the species named
Conditions: Homo sapiens

First: LEELEQFARTFKQRRIKLGFTQGDVGLACGKLYGNDFSQTTISRFEALNLSFKNMCKLKPLLEKWLNDAE
Second: LEELEQFARTFKQRRIKLGFTQGDVGLASGKLYGNDFSQTTISRFEALNLSFKNMCKLKPLLEKWLNDAE
The abundance fitness of the first is higher: -0.076 ± 0.076 for the first, -0.552 ± 0.058 for the second.

Going from LEELEQFARTFKQRRIKLGFTYGDVGLAMGKLYGNDFSQTTISRFEALNLSFKNMCKLKPLLEKWLNDAE to LEELEQFARTFKQRRIKLGFTQGDVGLAMGKLYGNDFSQGTISRFEALNLSFKNMCKLKPLLEKWLNDAE, the abundance fitness rises from -0.423 ± 0.1 to -0.036 ± 0.042.

Going from LEELEQFARTFKQRRIKLGFTQGDVGLAMGKLYGNDFSQTTISRFEALNLSFKNMCKLKPLLEKGLNDAE to LEELEQFARTFKQRRIKLGFTQGDVGLAMGKLYGNDFSQTTISRFEALNLSFKNMCKLKPLLEKPLNDAE, the abundance fitness rises from -0.71 ± 0.088 to -0.433 ± 0.15.

First: LEELEQFARTFKQRRIKLGFTQGDVGLAMGKLYGNDFSQTTISRFEALNLSFKNMCKLKPLLEKYLNDAE
Second: LEELEQFARTFKQRRIKLGFTQGDVGLAMGKLYGNDFSQTTISRFEALNLSFKNMCKLKPLLEKSLNDAE
The abundance fitness of the first is higher: -0.128 ± 0.093 for the first, -0.522 ± 0.11 for the second.

First: LEELEQFARTFKQRRIKLGFTQGDVGLAMGKLYGNDFSQTTISRFEALNLSFKNMCKLKPLLEKQLNDAE
Second: LEELEQFARTFKQRRIKLGFTQGDVGLAMGKLYGNDFSQTTISRFEALNLSFKNMCTLKPLLEKWLNDAE
The abundance fitness of the first is lower: -0.843 ± 0.18 for the first, 0.024 ± 0.041 for the second.

Compared with LEELEQFARTFKQNRIKLGFTQGDVGLAMGKLYGNDFSQTTISRFEALNLSFKNMCKLKPLLEKWLNDAE, LEELEQFARTFKQRRIKLGFTQGDWGLAMGKLYGNDFSQTTISRFEALNLSFKNMCKLKPLLEKWLNDAE is lower in abundance fitness: 0.03 ± 0.11 for the first, -0.692 ± 0.065 for the second.

LEELEQFARTFKQRRIKLGFTQGDVGLAMGKLYGNDFSQTTISRFEALCLSFKNMCKLKPLLEKWLNDAE and LEELEQFARTFKQRRIKLGFTQGDVGLAMGALYGNDFSQTTISRFEALNLSFKNMCKLKPLLEKWLNDAE are within error of each other in abundance fitness: 0.012 ± 0.043 for the first, -0.019 ± 0.042 for the second.

LEELEQFARTFKQRRIKLGFTQGDVGLAMGCLYGNDFSQTTISRFEALNLSFKNMCKLKPLLEKWLNDAE and LEELEMFARTFKQRRIKLGFTQGDVGLAMGKLYGNDFSQTTISRFEALNLSFKNMCKLKPLLEKWLNDAE are within error of each other in abundance fitness: -0.054 ± 0.065 for the first, 0.027 ± 0.052 for the second.

First: LEELEQFARTFKQRRIKLGFTQGDVTLAMGKLYGNDFSQTTISRFEALNLSFKNMCKLKPLLEKWLNDAE
Second: LEELEQFARTFKQRRIKLGFTQGDVMLAMGKLYGNDFSQTTISRFEALNLSFKNMCKLKPLLEKWLNDAE
The abundance fitness of the first is higher: -0.014 ± 0.052 for the first, -0.131 ± 0.045 for the second.

LEELEQFARTFKQRRIKLGFTQGDVGLAMGKLYGNDFSRTTISRFEALNLSFKNMCKLKPLLEKWLNDAE and LEELEQFARTFKQRRKKLGFTQGDVGLAMGKLYGNDFSQTTISRFEALNLSFKNMCKLKPLLEKWLNDAE are within error of each other in abundance fitness: -0.019 ± 0.028 for the first, -0.021 ± 0.034 for the second.

Compared with LEELEQFARTFKQRRFKLGFTQGDVGLAMGKLYGNDFSQTTISRFEALNLSFKNMCKLKPLLEKWLNDAE, LEELEQFARTFKQRRIKLFFTQGDVGLAMGKLYGNDFSQTTISRFEALNLSFKNMCKLKPLLEKWLNDAE is lower in abundance fitness: -0.141 ± 0.051 for the first, -0.461 ± 0.2 for the second.

LEELEQFARTFKQRRIKLGFTQGDVGLAMGKLYGNDFSQTTISRFEALNLSFKNMCKLKSLLEKWLNDAE and LEELEQFARTFKQRRIKLGFTQGDVGLAMGKLYGNDFSQTTISRFEALNLSFKNMCKLKLLLEKWLNDAE are within error of each other in abundance fitness: -0.069 ± 0.057 for the first, -0.156 ± 0.036 for the second.

First: LEELEQFARTFKQRRIKLGFTQGLVGLAMGKLYGNDFSQTTISRFEALNLSFKNMCKLKPLLEKWLNDAE
Second: LEELEQFARTFKQRRIKLGFTQGDVGLAMGKLYGNDFSQTTISRFEALNLSAKNMCKLKPLLEKWLNDAE
The abundance fitness of the first is lower: -0.215 ± 0.032 for the first, -0.038 ± 0.046 for the second.

LEELEQFARTFKQRRIKLGFTQGDVGLAMGKLYGNDFSQTTISRFEALNLSKKNMCKLKPLLEKWLNDAE and LKELEQFARTFKQRRIKLGFTQGDVGLAMGKLYGNDFSQTTISRFEALNLSFKNMCKLKPLLEKWLNDAE are within error of each other in abundance fitness: -0.031 ± 0.085 for the first, -0.02 ± 0.16 for the second.

Going from LHELEQFARTFKQRRIKLGFTQGDVGLAMGKLYGNDFSQTTISRFEALNLSFKNMCKLKPLLEKWLNDAE to LEELEQFARTFKQRHIKLGFTQGDVGLAMGKLYGNDFSQTTISRFEALNLSFKNMCKLKPLLEKWLNDAE, the abundance fitness falls from -0.366 ± 0.094 to -1.13 ± 0.39.

First: LEELEQFARTFKQRQIKLGFTQGDVGLAMGKLYGNDFSQTTISRFEALNLSFKNMCKLKPLLEKWLNDAE
Second: LEELEQFARTFKQRRIKLGFTQGDVGLAMGKLYGNDESQTTISRFEALNLSFKNMCKLKPLLEKWLNDAE
The abundance fitness of the first is lower: -1.04 ± 0.079 for the first, -0.255 ± 0.08 for the second.

Compared with LEELEQFARTFKQRRIKLGFTQGDVGLAMGKLYGNDVSQTTISRFEALNLSFKNMCKLKPLLEKWLNDAE, LEELEQFARTFKQRRIKLGFTQGDVGLAMGKLYGNDRSQTTISRFEALNLSFKNMCKLKPLLEKWLNDAE is lower in abundance fitness: -0.065 ± 0.041 for the first, -0.39 ± 0.044 for the second.

Compared with LEELEQQARTFKQRRIKLGFTQGDVGLAMGKLYGNDFSQTTISRFEALNLSFKNMCKLKPLLEKWLNDAE, LEELEQMARTFKQRRIKLGFTQGDVGLAMGKLYGNDFSQTTISRFEALNLSFKNMCKLKPLLEKWLNDAE is higher in abundance fitness: -0.676 ± 0.091 for the first, -0.226 ± 0.075 for the second.

Going from LEEEEQFARTFKQRRIKLGFTQGDVGLAMGKLYGNDFSQTTISRFEALNLSFKNMCKLKPLLEKWLNDAE to LEELYQFARTFKQRRIKLGFTQGDVGLAMGKLYGNDFSQTTISRFEALNLSFKNMCKLKPLLEKWLNDAE, the abundance fitness rises from -0.523 ± 0.078 to -0.161 ± 0.11.

— the Human Domainome abundance scans (Beltran et al. 2025)
